Results on 47 molecules are retold here after patent US20210269480A1 (published 2021).

*1 amine or outer side, *2 acyl side, *3 side chain or, on linkers, in order; H or OH if unused. Bridges are numbered along the chain shown (N, C = ends). Where no end group is shown, it is not given here. [ ]: non-standard residue; d: D form. 124TriAz = 3-(1,2,4-triazol-1-yl)-alanine, O=C([C@H](Cn1cncn1)N[*:1])[*:2]; TATA = O=C(CC[*:1])N1CN(C(=O)CC[*:2])CN(C(=O)CC[*:3])C1; HGln = homoglutamine, NC(=O)CCC[C@H](N[*:1])C(=O)[*:2]; Phe(4-COOH) = N[C@@H](Cc1ccc(C(=O)O)cc1)C(=O)O; Trp(5-F) = N[C@@H](Cc1c[nH]c2ccc(F)cc12)C(=O)O; Ala(4-thiazolyl) = N[C@@H](Cc1cscn1)C(=O)O; 1Nal = N[C@@H](Cc1cccc2ccccc12)C(=O)O; 2Nal = N[C@@H](Cc1ccc2ccccc2c1)C(=O)O; Dopa = N[C@@H](Cc1ccc(O)c(O)c1)C(=O)O; Gly(cPent) = N[C@H](C(=O)O)C1CCCC1; Ser(ΨH,HPro) = O=C(O)[C@@H]1COCN1; Ala(cPr) = N[C@@H](CC1CC1)C(=O)O; NMeT = CN[C@H](C(=O)O)[C@@H](C)O; hArg = N=C(N)NCCCC[C@H](N)C(=O)O; 2Thi = N[C@@H](Cc1cccs1)C(=O)O; NMeC = CN[C@@H](CS)C(=O)O; hSer = N[C@@H](CCO)C(=O)O; βAla = NCCC(=O)O; Sar = CNCC(=O)O

The term Ki denotes the equilibrium dissociation constant of an inhibitor or competing ligand from its target. High values mean weaker binding, low ones tighter binding.

T1: human Nectin-4 (human, UniProt Q96NY8 32-349)
T1 construct: a Gly32-Ser349 FLAG construct is described only under the SPR assay; also called PVRL4
T1 sequence (looked up): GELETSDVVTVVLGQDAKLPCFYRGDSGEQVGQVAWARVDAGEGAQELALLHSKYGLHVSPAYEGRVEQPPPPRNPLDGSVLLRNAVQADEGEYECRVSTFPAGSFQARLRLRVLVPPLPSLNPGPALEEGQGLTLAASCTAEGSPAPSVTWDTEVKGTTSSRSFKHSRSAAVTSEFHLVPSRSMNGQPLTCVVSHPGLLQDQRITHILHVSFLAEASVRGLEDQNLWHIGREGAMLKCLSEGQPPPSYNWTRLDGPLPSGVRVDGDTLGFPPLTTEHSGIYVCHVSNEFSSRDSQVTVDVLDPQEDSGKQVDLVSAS

For the experiment, the target named is T1, human Nectin-4. Briefly: FP competition, tracer SEQ ID NO 217. On the procedure: Peptides were diluted to an appropriate concentration in assay buffer as described in the direct binding assay with a maximum of 5% DMSO, then serially diluted 1 in 2. […] Measurements were conducted as for the direct binding assay, however the gain was determined prior to the first measurement. Data analysis was in Systat Sigmaplot version 12.0 where the mP values were fit to a user defined cubic equation to generate a Ki value: […]
Take Ac-CPF[dL]CM[hArg]NWSTPIWC (linker 1-5-15 via TATA) [BCY7906]: the Ki was found to be 6 nM. That is a single-digit nanomolar value.
In turn, Ac-[Phe(4-COOH)]CPFGCMKNWSWPIWC (linker 2-6-16 via TATA) [BCY7656] yielded a Ki of 71.9 nM.
On to Ac-CPFGCM[hArg]NWSWPIWC (linker 1-5-15 via TATA) [BCY7660], for which the affinity, expressed as Ki, was 26.2 nM.
Ac-CP[Dopa][dD]CM[hArg]NWSTPIWC (linker 1-5-15 via TATA) [BCY7886] gave an inhibition constant (Ki) of 15 nM.
The figure for Ac-CP[1Nal][dR]CM[hArg]DWSTPIWC (linker 1-5-15 via TATA) [BCY8215] is 3 nM.
Molecule Ac-CP[1Nal][dD]CL[hArg]DWSTPIWC (linker 1-5-15 via TATA) [BCY8211] came in with an inhibitory constant (Ki) of 4.5 nM.
The figure for Ac-CP[1Nal][dD]CM[hArg]DWSTPIWC (linker 1-5-15 via TATA) [BCY8127] is 2.4 nM; for {Ac-βAla}-[Sar][Sar][Sar][Sar][Sar]CP[1Nal][dD]CM[hArg]DWSTPIWC (linker 6-10-20 via TATA) [BCY8123] it is 4.5 nM.
In the case of Ac-CPF[dK]CM[hArg]NWSTPIWC (linker 1-5-15 via TATA) [BCY7820], the Ki turned out to be 10 nM.
Turning to Ac-CPFGCMKNWSWPI[2Nal]C (linker 1-5-15 via TATA) [BCY7667], the inhibition constant Ki came to 27.3 nM. Against the preceding molecule, the Ki is about 2.7-fold higher.
In the case of Ac-CPF[dD]CM[hArg]NWST[Ser(ΨH,HPro)]IWC (linker 1-5-15 via TATA) [BCY7884] it was 223 nM; in that of Ac-CPF[dD]CM[hArg][Ala(4-thiazolyl)]WSTPIWC (linker 1-5-15 via TATA) [BCY7879], 12.5 nM; in that of QKWCAPLSXYWCNRIC (N-terminal Ac; TATA on 3 Cys) [BCY7640], 86 nM.
Ac-CPF[dQ]CM[hArg]NWSTPIWC (linker 1-5-15 via TATA) [BCY7904] gave a Ki of 8 nM.
Consider Ac-CPF[dD]CM[hArg][2Thi]WSTPIWC (linker 1-5-15 via TATA) [BCY7877], for which the affinity corresponds to a Ki of 9.5 nM. The Ki values of the last two molecules are within 1.5-fold of each other.
In turn, Ac-CPF[dS]CM[hArg]NWSTPIWC (linker 1-5-15 via TATA) [BCY7907] gave a Ki of 10 nM. The Ki values of the last two molecules are within 1.5-fold of each other.
Ac-QKWCAPLSDYWC[dA]RIC (linker 4-12-16 via TATA) [BCY7643] yielded a Ki of 19 nM. Against the preceding molecule, the Ki is about 1.9-fold higher.
With Ac-CPFGCMKN[1Nal]SWPIWC (linker 1-5-15 via TATA) [BCY7663], the inhibitory constant (Ki) was 25.5 nM.
In the case of Ac-[dA]KWCAPLSDYWCNRIC (linker 4-12-16 via TATA) [BCY7634], the affinity, expressed as Ki, was 24 nM.
In turn, Ac-QK[dA]CAPLSDYWCNRIC (linker 4-12-16 via TATA) [BCY7636] yielded an inhibition constant Ki of 522 nM.
In the case of Ac-Q[dD]WCAPLSDYWCNRIC (linker 4-12-16 via TATA) [BCY7993], the Ki came out at 38 nM.
Ac-Q[dA]WCAPLSDYWCNRIC (linker 4-12-16 via TATA) [BCY7635] showed an inhibition constant (Ki) of 15.2 nM. Compared with the last molecule, the Ki is about 2.5-fold lower.
As for ACPFGCMRNWSWPIWCA (linker 2-6-16 via TATA, also called 80-09-02-N003) [BCY429], the inhibition constant (Ki) turned out to be 42.6 nM.
The molecule DDWCAPLDDYWCGRICA (linker 4-12-16 via TATA, also called 80-10-11-T01) [BCY433] came in with a Ki of 69.4 nM. This Ki is about 1.6-fold higher than that of the molecule before.
In the case of Ac-CPF[dD]CM[hArg]NWSTP[Ala(cPr)]WC (linker 1-5-15 via TATA) [BCY7912] it was 9 nM; in that of Ac-CPF[dD]CM[hArg]NW[hSer]TPIWC (linker 1-5-15 via TATA) [BCY7908], 20 nM.
ACAPLDDYWCGRICA (linker 2-10-14 via TATA) [BCY432]: the inhibitory constant (Ki) was determined as 1100 nM.
Turning to Ac-CPF[dF]CM[hArg]NWSTPIWC (linker 1-5-15 via TATA) [BCY7902], the Ki turned out to be 4 nM.
In turn, Ac-CPF[dD]C[HGln][hArg]NWSTPIWC (linker 1-5-15 via TATA) [BCY7914] returned a Ki of 62 nM.
In the case of Ac-CPF[dE]CM[hArg]NWSTPIWC (linker 1-5-15 via TATA) [BCY7903], the affinity, expressed as Ki, was 41 nM.
Consider CPF[dD]CM[hArg]NWSTPIWC (linker 1-5-15 via TATA) [BCY7793], for which the Ki stood at 42 nM.
Molecule Ac-CPF[dD]CM[hArg]NWS[Dopa]PIWC (linker 1-5-15 via TATA) [BCY7887] yielded a Ki of 21.4 nM.
The figure for Ac-CPF[dD]CM[hArg]N[Trp(5-F)]STPIWC (linker 1-5-15 via TATA) [BCY7891] is 5 nM; for Ac-CPF[dD]CM[hArg][124TriAz]WSTPIWC (linker 1-5-15 via TATA) [BCY7881] it is 14.4 nM.
Ac-C[Ser(ΨH,HPro)]F[dD]CM[hArg]NWSTPIWC (linker 1-5-15 via TATA) [BCY7876]: the Ki is 59.2 nM.
Ac-CPF[dD]C[Gly(cPent)][hArg]NWSTPIWC (linker 1-5-15 via TATA) [BCY7915] displayed a Ki of 20 nM.
In the case of Ac-QK[1Nal]CAPLSDYWCNRIC (linker 4-12-16 via TATA) [BCY7996] it was 21 nM.
In turn, Ac-QKWCAPL[dA]DYWCNRIC (linker 4-12-16 via TATA) [BCY7639] had an inhibition constant Ki of 490 nM.
Molecule Ac-CPFGCMKN[2Nal]SWPIWC (linker 1-5-15 via TATA) [BCY7664] returned a Ki of 70 nM.
Consider Ac-CPF[dD]CM[hArg]NWSTPI[Trp(5-F)]C (linker 1-5-15 via TATA) [BCY7892], for which the Ki is 9.5 nM.
The figure for Ac-CPF[dD][NMeC]M[hArg]NWSTPIWC (linker 1-5-15 via TATA) [BCY7973] is 4 nM; for ACWPLDPYWCGRICA (linker 2-10-14 via TATA) [BCY430] it is 310 nM.
In turn, DDACPFGCMETWSWPIWCA (linker 4-8-18 via TATA) [BCY3386] registered an inhibitory constant (Ki) of 80.2 nM.
In the case of Ac-CPF[dA]CMKNWSWPIWC (linker 1-5-15 via TATA) [BCY7538] it was 8.5 nM; in that of Ac-CPF[dD]CMKNWSTPIWC (linker 1-5-15 via TATA) [BCY7819], 12 nM; in that of Ac-CPF[dD]CM[hArg]NWS[124TriAz]PIWC (linker 1-5-15 via TATA) [BCY7883], 189 nM.
Regarding Ac-CPF[dD]C[hArg]NWS[NMeT]PIWC (linker 1-5-14 via TATA) [BCY7979], the inhibitory constant (Ki) was determined as 191 nM.
